Data from article PMC9539438.
Where “and” joins values, the source holds several entries; their conditions need not be identical. Equal entries are not always repeated.

Experiments:
[1] = biological target: P66 with a c-Myc epitope tag inserted C-terminally to D303 (Borrelia burgdorferi)
[2] = biological target: P66 with a c-Myc epitope tag inserted C-terminally to D303 (Borrelia burgdorferi); experiment: native gel or EMSA; Blue native PAGE (4-16% Bis-Tris) of membrane B-fractions solubilised in 1.25% digitonin; immunoblot with anti-P66 or anti-c-Myc
[3] = biological target: P66 with a c-Myc epitope tag inserted C-terminally to E33 (Borrelia burgdorferi)
[4] = biological target: P66 with a c-Myc epitope tag inserted C-terminally to E33 (Borrelia burgdorferi); experiment: native gel or EMSA; Blue native PAGE (4-16% Bis-Tris) of membrane B-fractions solubilised in 1.25% digitonin; immunoblot with anti-P66 or anti-c-Myc

P66 with a c-Myc epitope tag inserted C-terminally to D303 (natural protein)
single-channel conductance of the outer membrane fraction in black lipid bilayers (1 M KCl, 20 mV) [1]: < 4 nS
stoichiometry N [2]: 3 and 5

P66 with a c-Myc epitope tag inserted C-terminally to E33 (natural protein)
single-channel conductance of the outer membrane fraction in black lipid bilayers (1 M KCl, 20 mV) [3]: < 4 nS
stoichiometry N [4]: 3
